Experimental data from patent US20200087373A1 (UNIVERSITY OF COPENHAGEN, published 2020).
Ends that are not written are not given here. * marks the point of attachment. C16 diacid = O=C(O)CCCCCCCCCCCCCCC(=O)*; Palmitoyl = CCCCCCCCCCCCCCCC(=O)*; Lauroyl = CCCCCCCCCCCC(=O)*

Target: T1, human GIP receptor (human, UniProt P48546 22-466)
T1 sequence (looked up): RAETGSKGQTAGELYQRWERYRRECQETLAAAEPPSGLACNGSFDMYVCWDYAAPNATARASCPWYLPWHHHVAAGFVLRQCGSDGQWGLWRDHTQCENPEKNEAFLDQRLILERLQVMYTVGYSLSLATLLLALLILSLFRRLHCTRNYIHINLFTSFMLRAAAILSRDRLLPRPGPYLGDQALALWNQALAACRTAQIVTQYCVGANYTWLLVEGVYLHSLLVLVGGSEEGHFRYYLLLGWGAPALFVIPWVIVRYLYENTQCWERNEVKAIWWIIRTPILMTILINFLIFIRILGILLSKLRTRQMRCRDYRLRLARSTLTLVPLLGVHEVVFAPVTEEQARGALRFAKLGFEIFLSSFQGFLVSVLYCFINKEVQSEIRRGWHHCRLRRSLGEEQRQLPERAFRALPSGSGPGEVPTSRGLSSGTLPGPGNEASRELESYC
Test: cell-based or functional assay

Binder | cAMP antagonism, log (IC50) | cAMP antagonism, nM (IC50) | cAMP agonism, EC50 (log) | cAMP agonism, Emax | cAMP agonism, nM (EC50)
EGTFISDYSIAMDKIHQQDFVNWLLAQK-NH2 [hGIP(3-30)NH2] | -7.2 log M | 65 nM |  |  | 
EGTFISDYSIAMDKIHQQDFVNWLLK(C16 diacid)QK-NH2 (N-terminus assumed; SMILES CC[C@H](C)[C@H](NC(=O)[C@H](CO)NC(=O)[C@H](Cc1ccc(O)cc1)NC(=O)[C@H](CC(=O)O)NC(=O)[C@H](CO)NC(=O)[C@@H](NC(=O)[C@H](Cc1ccccc1)NC(=O)[C@@H](NC(=O)CNC(=O)[C@@H](N)CCC(=O)O)[C@@H](C)O)[C@@H](C)CC)C(=O)N[C@@H](C)C(=O)N[C@@H](CCSC)C(=O)N[C@@H](CC(=O)O)C(=O)N[C@@H](CCCCN)C(=O)N[C@H](C(=O)N[C@@H](Cc1c[nH]cn1)C(=O)N[C@@H](CCC(N)=O)C(=O)N[C@@H](CCC(N)=O)C(=O)N[C@@H](CC(=O)O)C(=O)N[C@@H](Cc1ccccc1)C(=O)N[C@H](C(=O)N[C@@H](CC(N)=O)C(=O)N[C@@H](Cc1c[nH]c2ccccc12)C(=O)N[C@@H](CC(C)C)C(=O)N[C@@H](CC(C)C)C(=O)N[C@@H](CCCCNC(=O)CCCCCCCCCCCCCCC(=O)O)C(=O)N[C@@H](CCC(N)=O)C(=O)N[C@@H](CCCCN)C(N)=O)C(C)C)[C@@H](C)CC) [AT317 [hGIP(3-30)NH2[A28K]-C16diacid/28]] | -6.6 log M | 228 nM | -7.2 log M | 21.8% | 62 nM
TFISDYSIAMDRIK(Palmitoyl)QQDFVNWLLAQR-NH2 (N-terminus assumed; SMILES CCCCCCCCCCCCCCCC(=O)NCCCC[C@H](NC(=O)[C@@H](NC(=O)[C@H](CCCNC(=N)N)NC(=O)[C@H](CC(=O)O)NC(=O)[C@H](CCSC)NC(=O)[C@H](C)NC(=O)[C@@H](NC(=O)[C@H](CO)NC(=O)[C@H](Cc1ccc(O)cc1)NC(=O)[C@H](CC(=O)O)NC(=O)[C@H](CO)NC(=O)[C@@H](NC(=O)[C@H](Cc1ccccc1)NC(=O)[C@@H](N)[C@@H](C)O)[C@@H](C)CC)[C@@H](C)CC)[C@@H](C)CC)C(=O)N[C@@H](CCC(N)=O)C(=O)N[C@@H](CCC(N)=O)C(=O)N[C@@H](CC(=O)O)C(=O)N[C@@H](Cc1ccccc1)C(=O)N[C@H](C(=O)N[C@@H](CC(N)=O)C(=O)N[C@@H](Cc1c[nH]c2ccccc12)C(=O)N[C@@H](CC(C)C)C(=O)N[C@@H](CC(C)C)C(=O)N[C@@H](C)C(=O)N[C@@H](CCC(N)=O)C(=O)N[C@@H](CCCNC(=N)N)C(N)=O)C(C)C) [AT134 [hGIP(5-30)NH2[K16R; H18K; K30R]-16/18]] | -7 log M | 93 nM | -7 log M | 11% | 35 nM
Palmitoyl-TFISDYSIAMDRIHQQDFVNWLLAQR-NH2 (SMILES CCCCCCCCCCCCCCCC(=O)N[C@H](C(=O)N[C@@H](Cc1ccccc1)C(=O)N[C@H](C(=O)N[C@@H](CO)C(=O)N[C@@H](CC(=O)O)C(=O)N[C@@H](Cc1ccc(O)cc1)C(=O)N[C@@H](CO)C(=O)N[C@H](C(=O)N[C@@H](C)C(=O)N[C@@H](CCSC)C(=O)N[C@@H](CC(=O)O)C(=O)N[C@@H](CCCNC(=N)N)C(=O)N[C@H](C(=O)N[C@@H](Cc1c[nH]cn1)C(=O)N[C@@H](CCC(N)=O)C(=O)N[C@@H](CCC(N)=O)C(=O)N[C@@H](CC(=O)O)C(=O)N[C@@H](Cc1ccccc1)C(=O)N[C@H](C(=O)N[C@@H](CC(N)=O)C(=O)N[C@@H](Cc1c[nH]c2ccccc12)C(=O)N[C@@H](CC(C)C)C(=O)N[C@@H](CC(C)C)C(=O)N[C@@H](C)C(=O)N[C@@H](CCC(N)=O)C(=O)N[C@@H](CCCNC(=N)N)C(N)=O)C(C)C)[C@@H](C)CC)[C@@H](C)CC)[C@@H](C)CC)[C@@H](C)O) [AT135 [hGIP(5-30)NH2[K16R; K30R]-C16/5]] |  |  |  | 0% | 
Palmitoyl-TFISDYSIAMDRIKQQDFVNWLLAQR-NH2 (SMILES CCCCCCCCCCCCCCCC(=O)N[C@H](C(=O)N[C@@H](Cc1ccccc1)C(=O)N[C@H](C(=O)N[C@@H](CO)C(=O)N[C@@H](CC(=O)O)C(=O)N[C@@H](Cc1ccc(O)cc1)C(=O)N[C@@H](CO)C(=O)N[C@H](C(=O)N[C@@H](C)C(=O)N[C@@H](CCSC)C(=O)N[C@@H](CC(=O)O)C(=O)N[C@@H](CCCNC(=N)N)C(=O)N[C@H](C(=O)N[C@@H](CCCCN)C(=O)N[C@@H](CCC(N)=O)C(=O)N[C@@H](CCC(N)=O)C(=O)N[C@@H](CC(=O)O)C(=O)N[C@@H](Cc1ccccc1)C(=O)N[C@H](C(=O)N[C@@H](CC(N)=O)C(=O)N[C@@H](Cc1c[nH]c2ccccc12)C(=O)N[C@@H](CC(C)C)C(=O)N[C@@H](CC(C)C)C(=O)N[C@@H](C)C(=O)N[C@@H](CCC(N)=O)C(=O)N[C@@H](CCCNC(=N)N)C(N)=O)C(C)C)[C@@H](C)CC)[C@@H](C)CC)[C@@H](C)CC)[C@@H](C)O) [AT133 [hGIP(5-30)NH2[K16R; H18K; K30R]-C16/5]] | -5.4 log M | 3810 nM |  | 0% | 
TFISDYSIAMDKIK(Palmitoyl)QQDFVNWLLAQK-NH2 (N-terminus assumed; SMILES CCCCCCCCCCCCCCCC(=O)NCCCC[C@H](NC(=O)[C@@H](NC(=O)[C@H](CCCCN)NC(=O)[C@H](CC(=O)O)NC(=O)[C@H](CCSC)NC(=O)[C@H](C)NC(=O)[C@@H](NC(=O)[C@H](CO)NC(=O)[C@H](Cc1ccc(O)cc1)NC(=O)[C@H](CC(=O)O)NC(=O)[C@H](CO)NC(=O)[C@@H](NC(=O)[C@H](Cc1ccccc1)NC(=O)[C@@H](N)[C@@H](C)O)[C@@H](C)CC)[C@@H](C)CC)[C@@H](C)CC)C(=O)N[C@@H](CCC(N)=O)C(=O)N[C@@H](CCC(N)=O)C(=O)N[C@@H](CC(=O)O)C(=O)N[C@@H](Cc1ccccc1)C(=O)N[C@H](C(=O)N[C@@H](CC(N)=O)C(=O)N[C@@H](Cc1c[nH]c2ccccc12)C(=O)N[C@@H](CC(C)C)C(=O)N[C@@H](CC(C)C)C(=O)N[C@@H](C)C(=O)N[C@@H](CCC(N)=O)C(=O)N[C@@H](CCCCN)C(N)=O)C(C)C) [AT145 [hGIP(5-30)NH2[H18K]-C16/18]] | -7.2 log M | 66 nM | -7 log M | 16% | 33 nM
EGTFISDYSIAMDKIHQQDFVNWLK(C16 diacid)AQK-NH2 (N-terminus assumed; SMILES CC[C@H](C)[C@H](NC(=O)[C@H](CO)NC(=O)[C@H](Cc1ccc(O)cc1)NC(=O)[C@H](CC(=O)O)NC(=O)[C@H](CO)NC(=O)[C@@H](NC(=O)[C@H](Cc1ccccc1)NC(=O)[C@@H](NC(=O)CNC(=O)[C@@H](N)CCC(=O)O)[C@@H](C)O)[C@@H](C)CC)C(=O)N[C@@H](C)C(=O)N[C@@H](CCSC)C(=O)N[C@@H](CC(=O)O)C(=O)N[C@@H](CCCCN)C(=O)N[C@H](C(=O)N[C@@H](Cc1c[nH]cn1)C(=O)N[C@@H](CCC(N)=O)C(=O)N[C@@H](CCC(N)=O)C(=O)N[C@@H](CC(=O)O)C(=O)N[C@@H](Cc1ccccc1)C(=O)N[C@H](C(=O)N[C@@H](CC(N)=O)C(=O)N[C@@H](Cc1c[nH]c2ccccc12)C(=O)N[C@@H](CC(C)C)C(=O)N[C@@H](CCCCNC(=O)CCCCCCCCCCCCCCC(=O)O)C(=O)N[C@@H](C)C(=O)N[C@@H](CCC(N)=O)C(=O)N[C@@H](CCCCN)C(N)=O)C(C)C)[C@@H](C)CC) [AT316 [hGIP(3-30)NH2[L27K]-C16diacid/27]] | -6.2 log M | 649 nM | -6.5 log M | 6.2% | 294 nM
EGTFISDYSIAMDK(Lauroyl)IHQQDFVNWLLAQK-NH2 [AT102 [hGIP(3-30)NH2-C12/16]] |  |  | -9.1 log M | 66% | 0.7 nM
EGTFISDYSIAMDKIHQQDFVNWLLAQK(Lauroyl)-NH2 [AT103 [hGIP(3-30)NH2-C12/30]] | -6.9 log M | 121 nM | -5.3 log M | 7% | 4880 nM
Lauroyl-EGTFISDYSIAMDKIHQQDFVNWLLAQK-NH2 [AT101 [hGIP(3-30)NH2-C12/3]] |  |  | -9.1 log M | 62% | 0.7 nM
Palmitoyl-EGTFISDYSIAMDKIHQQDFVNWLLAQK-NH2 [AT104 [hGIP(3-30)NH2-C16/3]] |  |  | -8.6 log M | 81% | 2.4 nM
EGTFISDYSIAMDKIHQQDFVNWLLAK(C16 diacid)K-NH2 (N-terminus assumed; SMILES CC[C@H](C)[C@H](NC(=O)[C@H](CO)NC(=O)[C@H](Cc1ccc(O)cc1)NC(=O)[C@H](CC(=O)O)NC(=O)[C@H](CO)NC(=O)[C@@H](NC(=O)[C@H](Cc1ccccc1)NC(=O)[C@@H](NC(=O)CNC(=O)[C@@H](N)CCC(=O)O)[C@@H](C)O)[C@@H](C)CC)C(=O)N[C@@H](C)C(=O)N[C@@H](CCSC)C(=O)N[C@@H](CC(=O)O)C(=O)N[C@@H](CCCCN)C(=O)N[C@H](C(=O)N[C@@H](Cc1c[nH]cn1)C(=O)N[C@@H](CCC(N)=O)C(=O)N[C@@H](CCC(N)=O)C(=O)N[C@@H](CC(=O)O)C(=O)N[C@@H](Cc1ccccc1)C(=O)N[C@H](C(=O)N[C@@H](CC(N)=O)C(=O)N[C@@H](Cc1c[nH]c2ccccc12)C(=O)N[C@@H](CC(C)C)C(=O)N[C@@H](CC(C)C)C(=O)N[C@@H](C)C(=O)N[C@@H](CCCCNC(=O)CCCCCCCCCCCCCCC(=O)O)C(=O)N[C@@H](CCCCN)C(N)=O)C(C)C)[C@@H](C)CC) [AT318 [hGIP(3-30)NH2[Q29K]-C16diacid/29]] | -6.6 log M | 224 nM | -6.9 log M | 10.8% | 131 nM
